Measured values from US20170342349A1, “STABILIZED ENZYME COMPOSITIONS” (NOVOZYMES A/S, priority 2014, published 2017).

Assays:
[1] = molecular target: Protease C (SEQ ID NO 6) (Lederbergia lenta (Bacillus lentus)) (UniProt P29600); experiment: Ki fitted from Suc-AAPF-pNA activity in Model B detergent; IF relative to SEQ ID NO 6 (the reference itself)
[2] = molecular target: TY145 (SEQ ID NO 3) variant S173P + S175P + I178P + F180Y; experiment: Ki fitted from Suc-AAPF-pNA activity in Model B detergent; IF relative to SEQ ID NO 3 comprising S173P + S175P + F180Y
[3] = molecular target: TY145 (SEQ ID NO 3) variant S173P + S175P + F180Y + G182A; experiment: as above
[4] = molecular target: TY145 (SEQ ID NO 3) variant I150N + S173P + S175P + F180Y; experiment: as above
[5] = molecular target: TY145 (SEQ ID NO 3) variant K146R + S173P + S175P + F180Y; experiment: as above
[6] = molecular target: TY145 (SEQ ID NO 3) variant S173P + S175P + F180Y + G182S; experiment: as above
[7] = molecular target: TY145 (SEQ ID NO 3) variant S173P + S175P + I178Y + F180Y; experiment: as above
[8] = molecular target: TY145 (SEQ ID NO 3) variant S173P + S175P + F180Y + L184W; experiment: as above
[9] = molecular target: TY145 (SEQ ID NO 3) variant K146N + S173P + S175P + F180Y; experiment: as above
[10] = molecular target: TY145 (SEQ ID NO 3) variant I150A + S173P + S175P + F180Y; experiment: as above
[11] = molecular target: TY145 (SEQ ID NO 3) variant Q70A + S173P + S175P + F180Y; experiment: as above
[12] = molecular target: TY145 (SEQ ID NO 3) variant L184Y; experiment: Ki fitted from Suc-AAPF-pNA activity at 8 inhibitor concentrations in Model B detergent; IF relative to SEQ ID NO 3
Sequence of TY145 (SEQ ID NO 3) variant L184Y (chain, as listed by the source L184Y L184Y limits assumed): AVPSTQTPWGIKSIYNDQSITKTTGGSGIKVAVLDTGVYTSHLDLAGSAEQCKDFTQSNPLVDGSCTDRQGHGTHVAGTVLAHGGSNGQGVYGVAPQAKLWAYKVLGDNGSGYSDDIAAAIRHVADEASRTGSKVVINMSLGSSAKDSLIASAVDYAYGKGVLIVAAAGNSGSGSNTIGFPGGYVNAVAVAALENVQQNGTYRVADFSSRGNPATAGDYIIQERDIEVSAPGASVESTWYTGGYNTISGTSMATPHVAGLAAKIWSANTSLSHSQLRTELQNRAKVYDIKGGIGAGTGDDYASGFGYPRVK

[13] = molecular target: TY145 (SEQ ID NO 3) variant S111R; experiment: as above
[14] = molecular target: TY145 (SEQ ID NO 3) variant L184F; experiment: as above
Sequence of TY145 (SEQ ID NO 3) variant L184F (chain, as listed by the source L184F L184F limits assumed): as the sequence (chain, as listed by the source L184Y L184Y limits assumed) above, with Y184F counted along it

[15] = molecular target: TY145 (SEQ ID NO 3) variant I150S; experiment: as above
Sequence of TY145 (SEQ ID NO 3) variant I150S (chain, as listed by the source I150S I150S limits assumed): as the sequence (chain, as listed by the source L184Y L184Y limits assumed) above, with I150S, Y184L counted along it

[16] = molecular target: TY145 (SEQ ID NO 3) variant Q70N; experiment: as above
[17] = molecular target: TY145 (SEQ ID NO 3) variant Q70A; experiment: as above
[18] = molecular target: TY145 (SEQ ID NO 3) variant Q70F; experiment: as above
[19] = molecular target: TY145 (SEQ ID NO 3) variant G182A; experiment: as above
Sequence of TY145 (SEQ ID NO 3) variant G182A (chain, as listed by the source G182A G182A limits assumed): as the sequence (chain, as listed by the source L184Y L184Y limits assumed) above, with G182A, Y184L counted along it

[20] = molecular target: TY145 (SEQ ID NO 3) variant Y240R; experiment: as above
[21] = molecular target: TY145 (SEQ ID NO 3) variant I150N; experiment: as above
[22] = molecular target: TY145 (SEQ ID NO 3) variant S114A; experiment: as above

Substance: Inhibitor 1: Cbz-Gly-Ala-NHCH(CH2C6H4pOH)C(OH)(SO3Na)-H (peptide)
- IF (binding constant improvement factor, relative Ki) [1]: 1
- IF (binding constant improvement factor, relative Ki) [2]: 2.22
- IF (binding constant improvement factor, relative Ki) [3]: 2.49
- IF (binding constant improvement factor, relative Ki) [4]: 3.58
- IF (binding constant improvement factor, relative Ki) [5]: 1.31
- IF (binding constant improvement factor, relative Ki) [6]: 1.69
- IF (binding constant improvement factor, relative Ki) [7]: 2.15
- IF (binding constant improvement factor, relative Ki) [8]: 2.23
- IF (binding constant improvement factor, relative Ki) [9]: 1.36
- IF (binding constant improvement factor, relative Ki) [10]: 2.52
- IF (binding constant improvement factor, relative Ki) [11]: 4.13
- IF (binding constant improvement factor, relative Ki) [12]: 4.47
- IF (binding constant improvement factor, relative Ki) [13]: 1.11
- IF (binding constant improvement factor, relative Ki) [14]: 2.27
- IF (binding constant improvement factor, relative Ki) [15]: 4.94
- IF (binding constant improvement factor, relative Ki) [16]: 3.33
- IF (binding constant improvement factor, relative Ki) [17]: 2.54
- IF (binding constant improvement factor, relative Ki) [18]: 8.53
- IF (binding constant improvement factor, relative Ki) [19]: 1.86
- IF (binding constant improvement factor, relative Ki) [20]: 1.19
- IF (binding constant improvement factor, relative Ki) [21]: 3.68
- IF (binding constant improvement factor, relative Ki) [22]: 2.14
